The results in this text go back to the supplement of paper PMC5998384.

For series [1], the system named is HeLa Kyoto. The experiment in a line: solubility change mitosis vs G1/S (difference of NP-40 vs SDS log2 ratios) (log2 ratio difference); higher = more soluble in mitosis.
In series [2] the test system is HeLa Kyoto. Description: thermal stability score vs G1/S (z-score of summed log2 fold changes over temperatures); higher = more thermally stable than in G1/S.
Series [3] has as its system HeLa Kyoto. Description: melting temperature (median over replicates), in situ; higher = more thermally stable.
The test system of series [4] is HeLa Kyoto. Description: solubility in G1/S (NP-40 vs SDS abundance) (log2 ratio); higher = more soluble. The conditions noted are these: cell cycle stage: G1/S.
The mark [5] stands for this setting: cell cycle stage: early G1 (4.5 h after nocodazole release).
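Wherever melting temperature (median over replicates), in situ is given: HeLa Kyoto cells synchronized by double thymidine or nocodazole block, proteins quantified by TMT10plex mass spectrometry, three independent biological replicates.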
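Wherever solubility change mitosis vs G1/S (difference of NP-40 vs SDS log2 ratios) is given: synchronized HeLa Kyoto cells (double thymidine block for G1/S, nocodazole release for mitosis), protein amounts in NP-40 versus SDS lysates quantified by mass spectrometry, three biological replicates.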
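Wherever solubility in G1/S (NP-40 vs SDS abundance) is given: HeLa Kyoto cells arrested at G1/S by double thymidine block, proteins quantified by TMT10plex mass spectrometry in mild NP-40 versus SDS extracts, three biological replicates.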
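Wherever thermal stability score vs G1/S (z-score of summed log2 fold changes over temperatures) is given: synchronized HeLa Kyoto cells, proteins quantified by TMT10plex mass spectrometry, three biological replicates, mitosis taken 0.5 h after nocodazole release, G1/S directly after double thymidine block.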

On to “MESAIAEGGASRFSASSGGGGSRGAPQHYPKTAGNSEFLGKTPGQNAQKWIPARSTRRDDNSAANNSANEKERHDAIFRKVRGILNKLTPEKFDKLCLELLNVGVESKLILKGVILLIVDKALEEPKYSSLYAQLCLRLAEDAPNFDGPAAEGQPGQKQSTTFRRLLISKLQDEFENRTRNVDVYDKRENPLLPEEEEQRAIAKIKMLGNIKFIGELGKLDLIHESILHKCIKTLLEKKKRVQLKDMGEDLECLCQIMRTVGPRLDHERAKSLMDQYFARMCSLMLSKELPARIRFLLQDTVELREHHWVPRKAFLDNGPKTINQIRQDAVKDLGVFIPAPMAQGMRSDFFLEGPFMPPRMKMDRDPLGGLADMFGQMPGSGIGTGPGVIQDRFSPTMGRHRSNQLFNGHGGHIMPPTQSQFGEMGGKFMKSQGLSQLYHNQSQGLLSQLQGQSKDMPPRFSKKGQLNADEISLRPAQSFLMNKNQVPKLQPQITMIPPSAQPPRTQTPPLGQTPQLGLKTNPPLIQEKPAKTSKKPPPSKEELLKLTETVVTEYLNSGNANEAVNGVREMRAPKHFLPEMLSKVIILSLDRSDEDKEKASSLISLLKQEGIATSDNFMQAFLNVLDQCPKLEVDIPLVKSYLAQFAARAIISELVSISELAQPLESGTHFPLFLLCLQQLAKLQDREWLTELFQQSKVNMQKMLPEIDQNKDRMLEILEGKGLSFLFPLLKLEKELLKQIKLDPSPQTIYKWIKDNISPKLHVDKGFVNILMTSFLQYISSEVNPPSDETDSSSAPSKEQLEQEKQLLLSFKPVMQKFLHDHVDLQVSALYALQVHCYNSNFPKGMLLRFFVHFYDMEIIEEEAFLAWKEDITQEFPGKGKALFQVNQWLTWLETAEEEESEEEAD [EIF4G2]”, for which the “solubility change mitosis (log2)” value in the series with HeLa Kyoto [1] is 0.0198. Besides, the thermal stability score in the series on HeLa Kyoto [2] (setting [5]) came to 1.01; in the series with HeLa Kyoto [2] (cell cycle stage: mitosis), 3.88. In addition, the melting temperature with HeLa Kyoto [3] (cell cycle stage: G1/S) worked out at 48.4 °C; in the series with HeLa Kyoto [3] (cell cycle stage: mitosis), 48.3 °C. In addition, the “solubility in G1/S (log2)” value with HeLa Kyoto [4] was 0.402.
With “MESEDLSGRELTIDSIMNKVRDIKNKFKNEDLTDELSLNKISADTTDNSGTVNQIMMMANNPEDWLSLLLKLEKNSVPLSDALLNKLIGRYSQAIEALPPDKYGQNESFARIQVRFAELKAIQEPDDARDYFQMARANCKKFAFVHISFAQFELSQGNVKKSKQLLQKAVERGAVPLEMLEIALRNLNLQKKQLLSEEEKKNLSASTVLTAQESFSGSLGHLQNRNNSCDSRGQTTKARFLYGENMPPQDAEIGYRNSLRQTNKTKQSCPFGRVPVNLLNSPDCDVKTDDSVVPCFMKRQTSRSECRDLVVPGSKPSGNDSCELRNLKSVQNSHFKEPLVSDEKSSELIITDSITLKNKTESSLLAKLEETKEYQEPEVPESNQKQWQSKRKSECINQNPAASSNHWQIPELARKVNTEQKHTTFEQPVFSVSKQSPPISTSKWFDPKSICKTPSSNTLDDYMSCFRTPVVKNDFPPACQLSTPYGQPACFQQQQHQILATPLQNLQVLASSSANECISVKGRIYSILKQIGSGGSSKVFQVLNEKKQIYAIKYVNLEEADNQTLDSYRNEIAYLNKLQQHSDKIIRLYDYEITDQYIYMVMECGNIDLNSWLKKKKSIDPWERKSYWKNMLEAVHTIHQHGIVHSDLKPANFLIVDGMLKLIDFGIANQMQPDTTSVVKDSQVGTVNYMPPEAIKDMSSSRENGKSKSKISPKSDVWSLGCILYYMTYGKTPFQQIINQISKLHAIIDPNHEIEFPDIPEKDLQDVLKCCLKRDPKQRISIPELLAHPYVQIQTHPVNQMAKGTTEEMKYVLGQLVGLNSPNSILKAAKTLYEHYSGGESHNSSSSKTFEKKRGKK”, the “solubility change mitosis (log2)” value with HeLa Kyoto [1] is 0.0511. For the same sequence, the thermal stability score in the series on HeLa Kyoto [2] (setting [5]) stood at 0.873; in the series with HeLa Kyoto [2] (cell cycle stage: mitosis), 3.46. For the same sequence, the melting temperature in the series with HeLa Kyoto [3] (cell cycle stage: G1/S) worked out at 46.8 °C; in the series on HeLa Kyoto [3] (cell cycle stage: mitosis) it was 48.1 °C. For the same sequence, the “solubility in G1/S (log2)” value in the series with HeLa Kyoto [4] came to 0.176.
Regarding “MESESESGAAADTPPLETLSFHGDEEIIEVVELDPGPPDPDDLAQEMEDVDFEEEEEEEGNEEGWVLEPQEGVVGSMEGPDDSEVTFALHSASVFCVSLDPKTNTLAVTGGEDDKAFVWRLSDGELLFECAGHKDSVTCAGFSHDSTLVATGDMSGLLKVWQVDTKEEVWSFEAGDLEWMEWHPRAPVLLAGTADGNTWMWKVPNGDCKTFQGPNCPATCGRVLPDGKRAVVGYEDGTIRIWDLKQGSPIHVLKGTEGHQGPLTCVAANQDGSLILTGSVDCQAKLVSATTGKVVGVFRPETVASQPSLGEGEESESNSVESLGFCSVMPLAAVGYLDGTLAIYDLATQTLRHQCQHQSGIVQLLWEAGTAVVYTCSLDGIVRLWDARTGRLLTDYRGHTAEILDFALSKDASLVVTTSGDHKAKVFCVQRPDR [AAMP]”, the “solubility change mitosis (log2)” value with HeLa Kyoto [1] was -0.112. The results for the thermal stability score in the series on HeLa Kyoto [2] (setting [5]) and in the series on HeLa Kyoto [2] (cell cycle stage: mitosis) were -1.15 and -3.66, respectively. Moreover, the values for the melting temperature with HeLa Kyoto [3] (cell cycle stage: G1/S) and in the series on HeLa Kyoto [3] (cell cycle stage: mitosis) were 51.3 °C and 51.6 °C, respectively. For the same sequence, the “solubility in G1/S (log2)” value with HeLa Kyoto [4] is -0.15.
Consider “MESGFTSKDTYLSHFNPRDYLEKYYKFGSRHSAESQILKHLLKNLFKIFCLDGVKGDLLIDIGSGPTIYQLLSACESFKEIVVTDYSDQNLQELEKWLKKEPEAFDWSPVVTYVCDLEGNRVKGPEKEEKLRQAVKQVLKCDVTQSQPLGAVPLPPADCVLSTLCLDAACPDLPTYCRALRNLGSLLKPGGFLVIMDALKSSYYMIGEQKFSSLPLGREAVEAAVKEAGYTIEWFEVISQSYSSTMANNEGLFSLVARKLSRPL [NNMT]”, for which, in the series with HeLa Kyoto [1], the “solubility change mitosis (log2)” value was -0.0166. Also, the values for the thermal stability score with HeLa Kyoto [2] (setting [5]) and with HeLa Kyoto [2] (cell cycle stage: mitosis) were 3.88 and 4.37, respectively. The melting temperature with HeLa Kyoto [3] (cell cycle stage: G1/S) was found to be 53.4 °C; in the series with HeLa Kyoto [3] (cell cycle stage: mitosis), 53.7 °C. The “solubility in G1/S (log2)” value in the series on HeLa Kyoto [4] is 0.584.
Consider “MESGQPARRIAMAPLLEYERQLVLELLDTDGLVVCARGLGADRLLYHFLQLHCHPACLVLVLNTQPAEEEYFINQLKIEGVEHLPRRVTNEITSNSRYEVYTQGGVIFATSRILVVDFLTDRIPSDLITGILVYRAHRIIESCQEAFILRLFRQKNKRGFIKAFTDNAVAFDTGFCHVERVMRNLFVRKLYLWPRFHVAVNSFLEQHKPEVVEIHVSMTPTMLAIQTAILDILNACLKELKCHNPSLEVEDLSLENAIGKPFDKTIRHYLDPLWHQLGAKTKSLVQDLKILRTLLQYLSQYDCVTFLNLLESLRATEKAFGQNSGWLFLDSSTSMFINARARVYHLPDAKMSKKEKISEKMEIKEGEETKKELVLESNPKWEALTEVLKEIEAENKESEALGGPGQVLICASDDRTCSQLRDYITLGAEAFLLRLYRKTFEKDSKAEEVWMKFRKEDSSKRIRKSHKRPKDPQNKERASTKERTLKKKKRKLTLTQMVGKPEELEEEGDVEEGYRREISSSPESCPEEIKHEEFDVNLSSDAAFGILKEPLTIIHPLLGCSDPYALTRVLHEVEPRYVVLYDAELTFVRQLEIYRASRPGKPLRVYFLIYGGSTEEQRYLTALRKEKEAFEKLIREKASMVVPEEREGRDETNLDLVRGTASADVSTDTRKAGGQEQNGTQQSIVVDMREFRSELPSLIHRRGIDIEPVTLEVGDYILTPEMCVERKSISDLIGSLNNGRLYSQCISMSRYYKRPVLLIEFDPSKPFSLTSRGALFQEISSNDISSKLTLLTLHFPRLRILWCPSPHATAELFEELKQSKPQPDAATALAITADSETLPESEKYNPGPQDFLLKMPGVNAKNCRSLMHHVKNIAELAALSQDELTSILGNAANAKQLYDFIHTSFAEVVSKGKGKK [ERCC4]”, for which the “solubility change mitosis (log2)” value in the series with HeLa Kyoto [1] was -0.274. Further, the thermal stability score in the series with HeLa Kyoto [2] (setting [5]) stood at 0.278; in the series on HeLa Kyoto [2] (cell cycle stage: mitosis) it was 0.608. In addition, the melting temperature amounted to 49.6 °C in the series with HeLa Kyoto [3] (cell cycle stage: G1/S) and 50.4 °C with HeLa Kyoto [3] (cell cycle stage: mitosis). For the same sequence, in the series on HeLa Kyoto [4], the “solubility in G1/S (log2)” value is -0.215.
As for “MESMFSSPAEAALQRETGVPGLLTPLPDLDGVYELERVAGFVRDLGCERVALQFPDQLLGDAVAVAARLEETTGSKMFILGDTAYGSCCVDVLGAEQAGAQALIHFGPACLSPPARPLPVAFVLRQRSVALELCVKAFEAQNPDPKAPVVLLSEPACAHALEALATLLRPRYLDLLVSSPAFPQPVGSLSPEPMPLERFGRRFPLAPGRRLEEYGAFYVGGSKASPDPDLDPDLSRLLLGWAPGQPFSSCCPDTGKTQDEGARAGRLRARRRYLVERARDARVVGLLAGTLGVAQHREALAHLRNLTQAAGKRSYVLALGRPTPAKLANFPEVDVFVLLACPLGALAPQLSGSFFQPILAPCELEAACNPAWPPPGLAPHLTHYADLLPGSPFHVALPPPESELWETPDVSLITGDLRPPPAWKSSNDHGSLALTPRPQLELAESSPAASFLSSRSWQGLEPRLGQTPVTEAVSGRRGIAIAYEDEGSG [DPH2]”, the “solubility change mitosis (log2)” value with HeLa Kyoto [1] is -0.0726. Moreover, the values for the thermal stability score in the series with HeLa Kyoto [2] (setting [5]) and with HeLa Kyoto [2] (cell cycle stage: mitosis) were -0.452 and -1.28, respectively. The melting temperature in the series on HeLa Kyoto [3] (cell cycle stage: G1/S) came out at 53.9 °C; in the series with HeLa Kyoto [3] (cell cycle stage: mitosis), 53.4 °C. The “solubility in G1/S (log2)” value in the series on HeLa Kyoto [4] amounted to 0.268.
For the sequence “MESNKDEAERCISIALKAIQSNQPDRALRFLEKAQRLYPTPRVRALIESLNQKPQTAGDQPPPTDTTHATHRKAGGTDAPSANGEAGGESTKGYTAEQVAAVKRVKQCKDYYEILGVSRGASDEDLKKAYRRLALKFHPDKNHAPGATEAFKAIGTAYAVLSNPEKRKQYDQFGDDKSQAARHGHGHGDFHRGFEADISPEDLFNMFFGGGFPSSNVHVYSNGRMRYTYQQRQDRRDNQGDGGLGVFVQLMPILILILVSALSQLMVSSPPYSLSPRPSVGHIHRRVTDHLGVVYYVGDTFSEEYTGSSLKTVERNVEDDYIANLRNNCWKEKQQKEGLLYRARYFGDTDMYHRAQKMGTPSCSRLSEVQASLHG [DNAJB12]”, the “solubility change mitosis (log2)” value in the series on HeLa Kyoto [1] is -0.00489. Further, the thermal stability score with HeLa Kyoto [2] (setting [5]) turned out to be 2.37; in the series with HeLa Kyoto [2] (cell cycle stage: mitosis) it was 0.328. Besides, the melting temperature in the series with HeLa Kyoto [3] (cell cycle stage: G1/S) worked out at 49.4 °C; with HeLa Kyoto [3] (cell cycle stage: mitosis) it was 50.4 °C. Further, the “solubility in G1/S (log2)” value in the series with HeLa Kyoto [4] is 0.104.
